Measured values reported in patent US20200131474A1, “METHODS AND COMPOSITIONS FOR OCULAR CELL THERAPY” (Novartis AG, priority 2018, published 2020).

How the values were obtained:
YAP = experiment: Exposure of LSCs to LATS inhibitors, intracellular YAP distribution by immunohistochemistry; format: cell-based, human; conditions: 10 micromolar, 24 hours, compared with DMSO control; data not shown
Procedure: Research-consented cadaveric human corneas were obtained from eye banks. Limbal rims were dissected and partially dissociated in a 1.2 mg/ml dispase solution for 2 hours at 37° C. followed by 10 minutes in TrypLE (Life Technologies). Pieces of limbal crypts were then carefully cut out of the partially dissociated limbal rims and rinsed by centrifugation). Cells obtained in this manner were used in the Examples below.
Cells were cultured under these conditions for 24 hours at 37° C. in 5% CO2.
To measure the effect of the LATS inhibitors on the downstream target YAP, intracellular YAP distribution was analyzed by immunohistochemistry. Cell cultures were fixed with 4% PFA for 20 minutes, permeabilized and blocked in a blocking solution of 0.3% Triton X-100 (Sigma-Aldrich) and 3% donkey serum in PBS for 30 minutes. Cells were then labeled with primary antibody in the blocking solution for 12 hours at 4° C. Primary antibody used was anti-YAP from Santa Cruz Biotechnology. Samples were washed in PBS three times and donkey-raised secondary antibody Alexa Fluor 488 (Molecular Probes) at 1:500 dilution were applied for 30 minutes at room temperature. […] Fluorescence was observed using a Zeiss LSM 880 confocal microscope.

phospho-YAP (ser127) = experiment: Exposure of LSCs to LATS inhibitors, YAP phosphorylation by western blot; format: cell-based, human; conditions: 10 micromolar, 1 hour, DMSO as negative control
Procedure: The medium was then replaced by fresh limbal epithelium cell culture medium (DMEM F12 supplemented with 10% human serum and 1.3 mM calcium chloride) supplemented with LATS inhibitor compound example no. […] Cells were cultured under these conditions for 1 hour at 37° C. in 5% CO2.
To measure the effect of the LATS inhibitors on the downstream target YAP, the YAP phosphorylation levels were measured by western blot as follows. The cell pellets were obtained by trypsin dissociation and centrifugation and washed with PBS. The pellets were lysed with 30 microlitres of RIPA lysis buffer containing protease inhibitor cocktail (Life Technologies) for 30 minutes, with vortexing every 10 minutes. The cell debris were then pelleted at 4° C. for 15 minutes at 14 k rpm and the protein lysate was collected. Protein concentration was quantified using a micro BCA kit (Pierce). Fifteen micrograms of total protein was loaded in each well of 4-20% TGX gels (BioRad) and Western blotting was performed according to the manufacturer's instructions. […] Membranes were stained with HRP-conjugated secondary antibodies, rinsed and imaged using a ChemiDoc system (Biorad) according to the manufacturer's instructions.

limbal stem cells = experiment: Human limbal stem cell population expansion, immunohistochemical observation of p63alpha phenotype; format: cell-based; conditions: for colony formation and p63alpha expression: 10 micromolar, 6 days after isolation without passaging, DMSO as negative control
Procedure: Cells were first cultured at 37° C. in 5% CO2 for 6 days after isolation without passaging (FIGS. 2A, 2B and 2C).
To evaluate the ability of the compounds to enable LSC expansion after two passages, LSCs were passaged and cultured for two weeks in the presence of compound example 3 to enable expansion (FIG. 2D). Limbal stem cells (LSCs) were passaged by treating cultures with Accutase for 10 minutes at 37° C., rinsing the cell suspension by centrifugation and plating cells in fresh LSC culture medium supplemented with LATS inhibitor compound example 3.
In order to observe that the expanded cell population expressed p63alpha, this was measured by immunohistochemistry as follows. Cell cultures were fixed with 4% PFA for 20 minutes, permeabilized and blocked in a blocking solution of 0.3% Triton X-100 (Sigma-Aldrich) and 3% donkey serum in PBS for 30 minutes. Cells were then labeled with primary antibody in the blocking solution for 12 hours at 4° C. Primary antibody used was p63alpha from Cell Signalling. Samples were washed in PBS three times and donkey-raised secondary antibody Alexa Fluor 488 (Molecular Probes) at 1:500 dilution were applied for 30 minutes at room temperature. Cells were counter-stained with a human nuclear antigen antibody (Millipore) at a 1:500 dilution in order to label all cells in the culture and confirm their human identity. […] Fluorescence was observed using a Zeiss LSM 880 confocal microscope.

[1] = system: genomic DNA purified from male human peripheral blood mononuclear cells; experiment: Biochemical method for potential off-target genomic sites cleaved by Cas9 and B2M guides; conditions: guide concentration of 64 nM
Description: A biochemical method (See, e.g., Cameron et al., Nature Methods. 6, 600-606; 2017) was used to determine potential off-target genomic sites cleaved by Cas9 and selected B2M guides.

[2] = system: potential off-target sites; experiment: Off-target activity detection in limbal stem cells by targeted PCR and NGS; format: cell-based, human; conditions: edited LSCs vs non-edited PBMCs; positive sites of sequenced loci
Procedure: Potential CRISPR/Cas9-mediated cutting sites identified above were evaluated using targeted PCR and NGS in genome-edited expanded LSCs.
Selected sgRNAs (SEQ ID NO: 120, 162, 166, 167, 171, and 175) were further analyzed by amplicon sequencing in edited and non-edited cells. Primers flanking the potential off-target sites for each guide were used to detect indels by NGS analysis in edited LSCs and non-edited peripheral blood mononuclear cells. Sites that had either (1) a difference in mean indel percentage between edited and unedited cells greater than 0.5%; or (2) a p value less than 0.05 between edited and unedited indel were further analyzed. NGS sequence reads for such sites were assessed for characteristic indel patterns near the putative Cas9 cut site.

## CC(C)(O)CC(C)(C)Nc1nc(-c2ccncc2)nc2cnccc12 [Example 3, 2,4-dimethyl-4-{[2-(pyridin-4-yl)pyrido[3,4-d]pyrimidin-4-yl]amino}pentan-2-ol]
YAP
  YAP immunostaining in the nucleus of LSCs: stronger
phospho-YAP (ser127)
  YAP phosphorylation levels in human LSCs (Western blot): caused a reduction in YAP phosphorylation levels
phospho-YAP (ser127); listed as ex. 3
  YAP phosphorylation levels in human LSCs (Western blot): induce YAP dephosphorylation
Limbal stem cells
  colony formation and p63alpha expression: the cells formed colonies and expressed p63alpha
Limbal stem cells; passaged and cultured for two weeks in the presence of compound
  cell population expansion after passaging, p63alpha expression: enabled cell population expansion and the formation of confluent cultures expressing p63alpha

## Cc1n[nH]cc1-c1nc(NC2(C)CC2)c2ccncc2n1 [Example 4, 2-(3-methyl-1H-pyrazol-4-yl)-N-(1-methylcyclopropyl)pyrido[3,4-d]pyrimidin-4-amine]
YAP
  YAP immunostaining in the nucleus of LSCs: stronger
phospho-YAP (ser127); listed as ex. 4
  YAP phosphorylation levels in human LSCs (Western blot): induce YAP dephosphorylation
phospho-YAP (ser127); listed as example no. 4
  YAP phosphorylation levels in human LSCs (Western blot): caused a reduction in YAP phosphorylation levels
Limbal stem cells
  colony formation and p63alpha expression: the cells formed colonies and expressed p63alpha

B1: 4-CR004366: gRNA targeting B2M (Dharmacon); targeting domain CAGUAAGUCAACUUCAAUGU (SEQ ID NO: 111); sgRNA SEQ ID NO: 162 (nucleic acid)
guide: CAGUAAGUCAACUUCAAUGUGUUUUAGAGCUAGAAAUAGCAAGUUAAAAUAAGGCUAGUCCGUUAUCAACUUGAAAAAGUGGCACCGAGUCGGUGCUUUU
modifications: listed as RNA, chemistry not given here
[1]
  off-target Site_Count: 92
[2]
  Number of sites positive for off-target activity in LSCs: zero

B2: 8-HEYJA000004: gRNA targeting B2M; targeting domain ACUCACGCUGGAUAGCCUCC (SEQ ID NO: 115 in Table 10, 118 in Table 4); sgRNA SEQ ID NO: 166 (nucleic acid)
guide: ACUCACGCUGGAUAGCCUCCGUUUUAGAGCUAGAAAUAGCAAGUUAAAAUAAGGCUAGUCCGUUAUCAACUUGAAAAAGUGGCACCGAGUCGGUGCUUUU
modifications: listed as RNA, chemistry not given here
[1]
  off-target Site_Count: 62
[2]
  Number of sites positive for off-target activity in LSCs: zero

B3: CR000456: gRNA targeting B2M; targeting domain CUUACCCCACUUAACUAUCU (SEQ ID NO: 139); sgRNA SEQ ID NO: 176 (nucleic acid)
guide: CUUACCCCACUUAACUAUCUGUUUUAGAGCUAGAAAUAGCAAGUUAAAAUAAGGCUAGUCCGUUAUCAACUUGAAAAAGUGGCACCGAGUCGGUGCUUUU
modifications: listed as RNA, chemistry not given here
[1]
  off-target Site_Count: 66

B4: CR000453: gRNA targeting B2M; targeting domain CACAGCCCAAGAUAGUUAAG (SEQ ID NO: 137); sgRNA SEQ ID NO: 174 (nucleic acid)
guide: CACAGCCCAAGAUAGUUAAGGUUUUAGAGCUAGAAAUAGCAAGUUAAAAUAAGGCUAGUCCGUUAUCAACUUGAAAAAGUGGCACCGAGUCGGUGCUUUU
modifications: listed as RNA, chemistry not given here
[1]
  off-target Site_Count: 82

B5: CR000446: gRNA targeting B2M; targeting domain AGGGUAGGAGAGACUCACGC (SEQ ID NO: 136); sgRNA SEQ ID NO: 173 (nucleic acid)
guide: AGGGUAGGAGAGACUCACGCGUUUUAGAGCUAGAAAUAGCAAGUUAAAAUAAGGCUAGUCCGUUAUCAACUUGAAAAAGUGGCACCGAGUCGGUGCUUUU
modifications: listed as RNA, chemistry not given here
[1]
  off-target Site_Count: 98

B6: CR000443: gRNA targeting B2M; targeting domain CGCGAGCACAGCUAAGGCCA (SEQ ID NO: 135); sgRNA SEQ ID NO: 172 (nucleic acid)
guide: CGCGAGCACAGCUAAGGCCAGUUUUAGAGCUAGAAAUAGCAAGUUAAAAUAAGGCUAGUCCGUUAUCAACUUGAAAAAGUGGCACCGAGUCGGUGCUUUU
modifications: listed as RNA, chemistry not given here
[1]
  off-target Site_Count: 117

B7: 9-HEYJA000005: gRNA targeting B2M; targeting domain UCACGUCAUCCAGCAGAGAA (SEQ ID NO: 116); sgRNA SEQ ID NO: 167 (nucleic acid)
guide: UCACGUCAUCCAGCAGAGAAGUUUUAGAGCUAGAAAUAGCAAGUUAAAAUAAGGCUAGUCCGUUAUCAACUUGAAAAAGUGGCACCGAGUCGGUGCUUUU
modifications: listed as RNA, chemistry not given here
[1]
  off-target Site_Count: 35
[2]
  Number of sites positive for off-target activity in LSCs: zero

B8: CR000442: gRNA targeting B2M; targeting domain GGCCACGGAGCGAGACAUCU (SEQ ID NO: 134); sgRNA SEQ ID NO: 171 (nucleic acid)
guide: GGCCACGGAGCGAGACAUCUGUUUUAGAGCUAGAAAUAGCAAGUUAAAAUAAGGCUAGUCCGUUAUCAACUUGAAAAAGUGGCACCGAGUCGGUGCUUUU
modifications: listed as RNA, chemistry not given here
[1]
  off-target Site_Count: 29
[2]
  Number of sites positive for off-target activity in LSCs: zero

B9: CR000455: gRNA targeting B2M; targeting domain UUACCCCACUUAACUAUCUU (SEQ ID NO: 138); sgRNA SEQ ID NO: 175 (nucleic acid)
guide: UUACCCCACUUAACUAUCUUGUUUUAGAGCUAGAAAUAGCAAGUUAAAAUAAGGCUAGUCCGUUAUCAACUUGAAAAAGUGGCACCGAGUCGGUGCUUUU
modifications: listed as RNA, chemistry not given here
[1]
  off-target Site_Count: 48
[2]
  Number of sites positive for off-target activity in LSCs: zero

B10: 6-HEYJA000001: gRNA targeting B2M; targeting domain GGCCGAGAUGUCUCGCUCCG (SEQ ID NO: 113); sgRNA SEQ ID NO: 164 (nucleic acid)
guide: GGCCGAGAUGUCUCGCUCCGGUUUUAGAGCUAGAAAUAGCAAGUUAAAAUAAGGCUAGUCCGUUAUCAACUUGAAAAAGUGGCACCGAGUCGGUGCUUUU
modifications: listed as RNA, chemistry not given here
[1]
  off-target Site_Count: 8
